Among the targets are Z-M_D37AzK; Z-M_H19AzK-PyOx; Z-M_H19AzK; Z-M_K33AzK-PyOx; Z-M_K33AzK; Z-M_M8AzK-PyOx; Z-M_M8AzK.
Common to all, as to test: SPR

Turning to trastuzumab WT (antibody), the dissociation constant (Kd) with Z-M_D37AzK amounted to 3.52 nM; in the experiment with Z-M_H19AzK-PyOx, 4.94 nM; with Z-M_H19AzK it was 5.1 nM; with Z-M_K33AzK-PyOx it was 3.48 nM; with Z-M_K33AzK, 4.85 nM; with Z-M_M8AzK-PyOx, 5.02 nM. In the experiment with Z-M_M8AzK, this substance displayed a Kd of 3.94 nM.

The record behind these values is article PMC10811483.
